In PMC12676778, “Long-tailed class I myosins rely on tail-mediated phosphoinositide recognition for specific membrane recruitment” (Cell Communication and Signaling : CCS, 2025):

Legend:
Settings in all cases: both partners purified
microtubules = microtubules (UniProt P02550 1-451, alpha/beta-tubulin heterodimer polymerised into paclitaxel-stabilised microtubules, GTP in the buffer. Source and isotypes not given); porcine brain tubulin (a natural isotype mixture with native mod); experiment: co-sedimentation; YFP fluorescence of pellet and supernatant; 100 mM PIPES pH 6.8, 2 mM MgCl2, 1 mM EGTA, 20 µM paclitaxel, 1 mM GTP; 20,000 g, 30 min, 30 °C; hyperbolic fit
F-actin [1] = target: T1, F-actin (UniProt P68135 1-377); experiment: co-sedimentation; YFP fluorescence of pellet and supernatant; increasing F-actin concentrations; 5 mM Tris pH 7.4, 100 mM KCl, 0.04% NaN3, 2 mM MgCl2; 20,000 g, 30 min, 4 °C
F-actin [2] = target: T1, F-actin; experiment: as above; remark: listed apart in the source

Sequence of microtubules (P02550 whole entry, chain 1 of 2): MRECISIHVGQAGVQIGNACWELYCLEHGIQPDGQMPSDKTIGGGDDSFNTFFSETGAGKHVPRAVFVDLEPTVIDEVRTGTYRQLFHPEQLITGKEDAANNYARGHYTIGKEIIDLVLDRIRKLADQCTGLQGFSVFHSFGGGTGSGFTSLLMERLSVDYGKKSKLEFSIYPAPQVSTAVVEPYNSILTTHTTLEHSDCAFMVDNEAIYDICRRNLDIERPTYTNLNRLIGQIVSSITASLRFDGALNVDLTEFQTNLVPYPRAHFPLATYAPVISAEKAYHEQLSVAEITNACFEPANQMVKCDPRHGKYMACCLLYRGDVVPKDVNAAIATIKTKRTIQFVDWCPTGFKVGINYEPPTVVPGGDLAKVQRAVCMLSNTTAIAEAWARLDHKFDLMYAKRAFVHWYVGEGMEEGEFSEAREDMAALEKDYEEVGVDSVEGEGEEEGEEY
Sequence of microtubules (P02554 whole entry, chain 2 of 2, further chain): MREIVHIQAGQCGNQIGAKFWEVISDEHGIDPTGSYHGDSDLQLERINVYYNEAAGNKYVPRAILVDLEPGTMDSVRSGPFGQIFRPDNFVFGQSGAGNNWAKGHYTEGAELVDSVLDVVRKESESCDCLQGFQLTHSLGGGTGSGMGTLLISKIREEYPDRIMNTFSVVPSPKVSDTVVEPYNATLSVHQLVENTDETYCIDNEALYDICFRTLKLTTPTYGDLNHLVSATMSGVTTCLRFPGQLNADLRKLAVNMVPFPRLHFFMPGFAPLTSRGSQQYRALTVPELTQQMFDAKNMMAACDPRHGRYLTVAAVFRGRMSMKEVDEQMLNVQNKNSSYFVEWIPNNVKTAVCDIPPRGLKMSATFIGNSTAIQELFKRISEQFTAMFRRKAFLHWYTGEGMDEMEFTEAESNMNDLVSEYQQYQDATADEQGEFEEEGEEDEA

Row | Kd (microtubules) [nM] | Kd (F-actin [1]) [nM] | Kd (F-actin [2]) [nM] | Binder
1 | 3300 ± 200 | – | – | myosin-1D tail-TH1 construct (aa 721–913) (domain or fragment, Dictyostelium discoideum, UniProt P34109 721-913, looked up, Dictyostelium discoideum myosin-1D, TH1 domain only, aa 721-913; The methods describe cloning into pGEX-6P2 (GST only); the results call the construct YFP-tagged and the co-sedimentation detects YFP; S3; also called Myosin-1D-TH1; isolated TH1 domain; source: E. coli Rosetta pLys-S, purified (glutathione-Sepharose, size exclusion chromatography)) MKSNKERRRLSIERPYQGDYINYRENFELKDIVKKNGNEKIMFTHAVNKYDRRSRCQRRVLLLSDTAIYFIATEKNKDKEDRKKRPWIYVQKRRLLLAGITSVELSKLSDGFVVLKTMNEHDQIFECRRKTEFLGTLIKAYKTGTLRINYNNSIGVAIKASKQGGKGKERIILFEKGIKPGESVFKGTKVSTP
2 | – | 800 ± 80 | 900 ± 400 | myosin-1C tail (domain or fragment, Dictyostelium discoideum myosin-1C, tail; S3; also called YFP-myosin-1 tail; source: E. coli Rosetta pLys-S, purified (glutathione-Sepharose, size exclusion chromatography)) RYWHDMASRIKNAYRNYKAFQFECSNRIKNAFRNYKLYRQRCAQTIQGYFRAWKQASPFFDLRMQNEQLFQGRKERNRFSMISVRKYFGDYLDVRSQSYFLDAMAEGRNEDVIFSSKSQVMVHPILSANKLSPRFLIVTKQAIYLIKLKQKKNLATYLLDRRVPLAEVTSFSLSSLADNLLVIHTSTQFDVAVTTEFKTELVALINKQKGTTLAVNFGQSIQYFKKKGSNNTVTFLKDEMHKEIFLKKNQFHIASGLPASTTVAKVRKNPSQVSTPSKPIAKPVAKPMVAKPSGGSVIMKKPAPAAPPSGPPVMKKPAPTAPGGAPMMKKPAPAPGGAPMMKKPAPVPGGPAPGGSAIMKPAGGVSKPLPSPTGAPMMKKPAPTAPGGPAPAGAPTPMMKKPAGQPMMKPIAKPQPTPMKKPAAPPPQQYIALYEYDAMQPDELTFKENDVINLIKKVDADWWQGELVRTKQIGMLPSNYVQQI
3 | 900 ± 100 | 6800 ± 200 | – | myosin-1B tail (amino acids 717–1111) (domain or fragment, Dictyostelium discoideum, UniProt P34092 717-1111, looked up, Dictyostelium discoideum myosin-1B, tail, amino acids 717-1111 (NCBI XM_631290.1); Cloned both into pGEX-6P2 (GST only) and pGEX-6P2-eYFP-mcs (GST and YFP); the actin and microtubule assays detect YFP; S3; also called YFP-myosin-1 tail; source: E. coli Rosetta pLys-S, purified (glutathione-Sepharose, size exclusion chromatography); not shown: YFP, C-terminal, kept) QRAQIAHMFKDKKERQRNSIDRKFTSDYIDFENQFGLQEAMQNAHKKERVVFADTVIKIDRRAKQKNYEMVLTDQALYFVEKSIKKKVLVHTLIRRVGLREIKGVSISTLSDNVIVFHLPEHDQVIENDKKTEIIIVLVEYFKAIGGGSLNVQFSDRINYTLKKGEQKEISFQKSEQCPTLVVKKGGKGLIGTIASGLPSSTDSTPKNYNPNSMSQASSRPAPQQSAGRGRGMPQGAGQPQPQQPQQQQRPMPQPQQGGGARPMPQPQQGGGARPMGAPQQGGAPQQGAGRQLPQPTQQGGAPGGRGAPMGRGAPGGGPAGAGGRPLPTVAKPAPQPSRPTAKALYDYDASSTDELSFKEGDIIFIVQKDNGGWTQGELKSGQKGWAPTNYLQYN
